From the supplement of paper PMC9732359
± gives the uncertainty stated by the source.

Assay: protein stability index of a GFP-peptide fusion (yeast GPS) (PSI 1-4); higher = more stable; sorted into four equal gates, so the index is relative within each strain
Summary of the method: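 Tiled 17-residue yeast protein peptides were fused downstream of GFP in a plasmid that also expresses Cherry, and the pooled library was carried in yeast. Mid-log cultures in leucine-free medium were sorted into four equal gates by GFP/Cherry fluorescence ratio, and plasmids from each gate were PCR-amplified and Illumina-sequenced, with reads assigned to strains by barcodes. The protein stability index for each peptide was each gate's read frequency times its gate number, summed.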

Sequence | protein stability index (doa10∆) | protein stability index (pdr5∆) | protein stability index (san1∆) | protein stability index (ubr1∆)
GLRAVRKNRYVILQSDL [RPT3] | 3.05 ± 0.081 | 3.06 ± 0.1 | 3.05 ± 0.08 | 3.31 ± 0.14
GDDEATEIISTLSNGLI [BRR2] | 3.32 ± 0.099 | 3.1 ± 0.13 | 3.42 ± 0.096 | 3.11 ± 0.21
DDRVDKKFVSQIQKNVD [POP3] | 3.22 ± 0.073 | 3.44 ± 0.12 | 3.29 ± 0.064 | 3.44 ± 0.051
KIALREYINNCKKNTKK [POP4] | – | 2.86 ± 0.27 | 3.01 ± 0.087 | 2.89 ± 0.15
EKKAASAKQTAPNNSNG [MED7] | 2.94 ± 0.15 | 3 ± 0.13 | 2.95 ± 0.14 | 2.41 ± 0.24
RVFRTRFQDGTSVVSIM [SMC2] | 2.07 ± 0.099 | 1.3 ± 0.1 | – | 2.31 ± 0.087
VNRQSPLFFVDLKLLFN [RGR1] | 1.53 ± 0.065 | 1.54 ± 0.074 | 1.29 ± 0.13 | 1.23 ± 0.11
IRQYALATAHIYLSRFL [SSN8] | 1.38 ± 0.034 | 1.34 ± 0.036 | 1.26 ± 0.12 | 1.11 ± 0.04
YFLDVKCPGCLNITTVF [RPS27A] | 2.64 ± 0.054 | 2.6 ± 0.055 | 2.19 ± 0.1 | 2.85 ± 0.054
VAALALLFAINSYQPSP [SMC1] | 1.62 ± 0.059 | 1.55 ± 0.073 | 1.89 ± 0.11 | 2.42 ± 0.055
YQGVYSMGSILLSFVLG [YML031W/NDC1] | 2.29 ± 0.074 | 2.14 ± 0.11 | 2.58 ± 0.11 | 2.44 ± 0.12
PVGRELDPISLILIPGE [RPN13] | 2.65 ± 0.098 | 2.56 ± 0.05 | 3.13 ± 0.062 | 3.23 ± 0.098
VIAHLTVEALDFREKAL [RET1] | 2.79 ± 0.11 | 2 ± 0.058 | 2.12 ± 0.1 | 2.57 ± 0.062
AGGGESDSALILMYKGF [UBP6] | 3.29 ± 0.091 | 3.45 ± 0.08 | 3.26 ± 0.12 | 3.35 ± 0.063
LLVKFIKFFWNNTHVGR [YLR018C/POM34] | 2.97 ± 0.22 | 2.48 ± 0.085 | 2.51 ± 0.085 | 2.66 ± 0.095
STKIIMLLLNDSVENSS [SRB8] | 2.63 ± 0.074 | 2.15 ± 0.07 | 2.6 ± 0.077 | 2.74 ± 0.088
PTDDKTLKPTFSFTEPA [YOR098C/NUP1] | 3.14 ± 0.088 | 2.65 ± 0.089 | 2.91 ± 0.072 | 3.07 ± 0.042
IKNVQDLLILTRSIKEK [SRB6] | 1.34 ± 0.11 | 1.31 ± 0.13 | – | 1.76 ± 0.2
SNNTAATADTTHLHEAL [NUT1] | 2.37 ± 0.076 | 3.07 ± 0.084 | 3.15 ± 0.11 | 3.02 ± 0.042
GDYGEEEDADQEESFSL [SRB8] | 3.76 ± 0.28 | 3.63 ± 0.17 | – | –
RTKTPGPGGQAALRALA [RPS14B] | 2.39 ± 0.077 | 2.55 ± 0.11 | 2.23 ± 0.1 | 2.46 ± 0.08
DTVEEKKEEKLNIGKNF [SIR4] | 2.42 ± 0.16 | 2.71 ± 0.25 | 3.34 ± 0.2 | 2.42 ± 0.13
YLAKELNLTGPKVPEDI [RPN1] | 3.26 ± 0.23 | 3.24 ± 0.27 | 2.38 ± 0.24 | –
SAYEASMVYSNVGELIE [RRP4] | 1.64 ± 0.057 | 2.22 ± 0.054 | 2.32 ± 0.058 | 1.85 ± 0.048
IQKEEEPENNTVIEGVK [SWI3] | 3.3 ± 0.073 | 3.06 ± 0.072 | 3.28 ± 0.048 | 3.25 ± 0.053
AQYCYKNGLYQEAFKIY [SRP72] | 2.87 ± 0.075 | 2.94 ± 0.097 | 3.1 ± 0.069 | 3.25 ± 0.059
RRKFDPSSSENVMTPRE [UBP6] | – | 1.99 ± 0.11 | 2.45 ± 0.22 | 2.96 ± 0.23

Sequence | protein stability index (doa10∆) | protein stability index (pdr5∆) | protein stability index (san1∆) | protein stability index (ubr1∆)
ELSDNEENFEATRTLVA [YCG1] | 3.13 ± 0.12 | 3.09 ± 0.096 | 2.89 ± 0.14 | 3.04 ± 0.081
TRIAGVVYHPSNNELVR [RPS8A] | 2.666 ± 0.019 | 2.47 ± 0.018 | 2.56 ± 0.02 | 2.652 ± 0.013
LVSLFEDTNLAAIHAKR [HHT1] | 2.9 ± 0.17 | 2.67 ± 0.17 | 2.56 ± 0.12 | 2.81 ± 0.063
WEHTAAEDQILANFVAK [SRB8] | – | 2.5 ± 0.17 | – | 2.57 ± 0.11
QEGLITTTMLQLFSTFD [SSN2] | 2.58 ± 0.051 | 2.57 ± 0.072 | 2.55 ± 0.056 | 2.61 ± 0.034
LREEIFIANEGVHTGQF [RPL2A] | 2.8 ± 0.084 | 2.84 ± 0.074 | 2.92 ± 0.06 | 3.03 ± 0.059
KIPLFTFAKSKNYSRPS [SIR4] | 2.39 ± 0.092 | 2.12 ± 0.081 | 1.74 ± 0.1 | 2.42 ± 0.064
PTQTVAELDLMSGILHC [RPN6] | 2.8 ± 0.06 | 3.07 ± 0.054 | 2.95 ± 0.047 | 3.1 ± 0.051
TVEPVYQMHIKTSKDIA [FAS1] | 1.29 ± 0.044 | 1.33 ± 0.063 | 1.31 ± 0.081 | 1.35 ± 0.065
YFKLDLTSDLVYFGDEN [RRI2] | 2.09 ± 0.15 | 2.47 ± 0.3 | – | 1.48 ± 0.08
FLDYTTDNVSMYPSPTG [PRP8] | 2.85 ± 0.056 | 2.85 ± 0.06 | 2.7 ± 0.06 | 2.95 ± 0.057
LHPQLHEVQYQESSSTL [SIN4] | 2.28 ± 0.049 | 2.5 ± 0.041 | 2.41 ± 0.07 | 2.3 ± 0.035
RAGQRTRFKAVVVVGDS [RPS2] | 2.07 ± 0.056 | 2.2 ± 0.063 | 2.28 ± 0.088 | 2.29 ± 0.048
EMDEKSYEKNEDHVEDH [LIN1] | 3.3 ± 0.11 | 3.35 ± 0.089 | 3.49 ± 0.086 | 3.14 ± 0.052
PFTDRSVVRGNTFKVLS [COB] | 2.25 ± 0.082 | 2.56 ± 0.18 | 2.52 ± 0.091 | 2.37 ± 0.12
ESNVNDSDMLTKSHNTV [NUT1] | 3.08 ± 0.1 | 3.25 ± 0.095 | 3.28 ± 0.086 | 3.43 ± 0.1
VTQSNILSQQFDKIIKI [SRB8] | 2.72 ± 0.07 | 2.96 ± 0.071 | 2.95 ± 0.056 | 2.89 ± 0.045
SYELIKEECQIEDDGII [CSN9] | 2.77 ± 0.11 | 3.01 ± 0.088 | 3.06 ± 0.069 | 3.1 ± 0.054
EKKGIVQASVTSSTHER [RET1] | 3.28 ± 0.19 | 3.1 ± 0.23 | 3.45 ± 0.15 | 3.24 ± 0.11
PDLDTECFISMQSTSPA [SWI1] | 2.68 ± 0.18 | 3.02 ± 0.13 | 2.32 ± 0.17 | 2.93 ± 0.07
VKIHSQESLLSRTFDKY [SRP72] | 2.92 ± 0.053 | 2.79 ± 0.071 | 2.96 ± 0.055 | 2.57 ± 0.041
IAKSRYWYFLQKLHKVK [RPL20A] | 3.06 ± 0.11 | 3.06 ± 0.087 | 2.79 ± 0.075 | 3.03 ± 0.084
WDLVDERTKQRTAKAYL [PRP8] | 3.18 ± 0.12 | 3.6 ± 0.23 | 3.09 ± 0.074 | 3.1 ± 0.1
VTTCVYLACKVEECPQY [SSN8] | 1.93 ± 0.059 | 2.05 ± 0.075 | 2.58 ± 0.11 | 1.96 ± 0.073
APLNLEIPAYEFDGDKV [RIP1] | 2.6 ± 0.099 | 2.54 ± 0.096 | 2.55 ± 0.077 | 2.72 ± 0.077
WDDHTKKPLSMALNKVL [CDC53] | 1.99 ± 0.069 | 2.29 ± 0.076 | 2.36 ± 0.056 | 1.94 ± 0.048
